Laboratory results taken from the DeepSol protein solubility set.

assay: soluble on expression in E. coli; label from the status in PepcDB or PDB records

Sequence | soluble on expression in E. coli
MGSDKIHHHHHHMSELITTGVDIGSGCIKTVVFKVNGDKVEWLGKETSRIRNRDPFQLTTETYNHMLKSAGVDAKDVAYVASTGDAENLSFATGHFYSMTTHGRGGLYLNPEARAVLDIGALNGRAIRMDGVGKVLSYKMTSQCASGSGQFLENIARYLGIAQDEIGSLSMKADDPEKVSSICAVLAETDVINMVSRGISASNILKGIHVSMAVRLAKLLKSIGAVDGIVQVTGGLALDTGLVAALNEAAEQEKVNLKAVSHPDSIYAGAIGAALWGAFRHEKLARLGQAA | not soluble
MTDTAEKYEAVVVGCGPGGAAAAATLARNGVETLVLERGVDAGSKNVSGGLIYAEESAPYTIDGLFPDFREEAAERPVTENLIHNIAGDRVKSFDIGDLHHHDTAWADAVLRRKMDSWLAQQVHERTRETGGGLLTEVHVTGLLRERGEIVGVTTEELDPIKADIIVAADGVNSELARDAGLMDWDEPEEWFQGVKAVVDMEPEVINDRFDVASDDGAAHLFSGDLFDGVRGGGFLYTNESSLSIGTVFHLDSIAEERAEPHELLDSLLTHPLMAQWLGDEYDEREYSAKLVPDSKKAAHPSPHEDRLVLVGDAAGQMQAQGPIIKGMNHAVTAGALAAEAFADARARGDPSQAGKLYEKKLHDEGVMDKLRPTGYRVFGQLGELGPVDNLSNAIAESAVGRFGVRAAAGLLERAYSSPRLVSMIPDTKLPYVTLPTVIAEELGEPVTDENTVSPPDLGDRIGDLTYDVGDPHIELVDKSFEASGTAVTACPVSAEDFGGGCYRDEMVQTNGSEEHLVSLDTQPCVECGTCAIVADTEWEHPAGGKGVEFNQGLEHHHHHH | not soluble
MNHKALFSGKLVFIGFGSITRATLGLLGNVQRFDVSRIVVIAPGIKGSEPFVKSGVTFIDQALTSDTMESVLGSIVGQGDFIVNLSVNVCSADVIRFAYAHDALYLDTCIEPWGNTYNSPSLTASQRSNYALRDQLRTLGAELGPGPTAVVAHGANPGLISHFLKCALSALAEQLSVAVPRHQGGIDWGNLSMKLGVKVIHIAERDTQRSTRIKSDGEFVNTWSVDGFVSEAGQPAELGWGSHEKNWPPFARHHQFGSDNAIYLDRPGACVSVKTWTPNGGPCNAMLITHNEAISIPELLTVRNEGALSYRPTVHYAYHPCDDALLSINEYTGRGWHAQDRQRIMLDEITPGGIDALGVLIMGHKLNAYWYGSILNIDEARRLAPFNNATSLQVAAGVYSGIIWAIENPDRGIVEPEQMDHQRVMEIALPFLGKFGGVLTDWTPLKTGNALFRKPDADACPWQFEHFTAALEHHHHHH | not soluble
MEFFFFIDVYADRELVDYYIVTFKLDDLSSVELTGSQGKYYIRGIRDWEKFKEEAYDITLYELGDEVDRFKDIETALREAYRIAIGEAVRRGAKNIVPAIGFGNPPPEVVERVYPEELKFEKFPEDLDAFLDRIVKEVSLETTERSKDDDEIPF | soluble
MKYYHHHHHHDYDIPTTENLYFQGAMAFDGEDEVTGPDADRARAAAVQAVPGGTAGEVETETGEGAAAYGVLVTRPDGTRVEVHLDRDFRVLDTEPADGDGG | soluble
MSRDNQEIKAPEESSAEEQKEMDDKVTSPEKAEEIKLKSRYPNIGPKPGGSDFLRKRLQKGQKYFDSGDYNMAKAKMKNKQLPTAAPDKTEVTGDHIPTPQDLPQRKPSLVASKLAG | soluble
MDESFDSSVVPGSLTSDDRAIFNEQTLKNGDENSKSSLEVMANCVYLANSTILRERKVIPAEYFQDFQVYGDVSGYTLRQDIPEGRSVSSKLLASHDAIRQKLLQKLAIVVEESLNTNPVETFVWTFVYDSTTSASAEIGYGGRKSKFVVNYLNMDDTAQQFCKMFSELRNVLSLLRPLPRGLIPSMKVAYRGEPEFVPGFQQVDDFVNPEQINLGAVSFPHGNGFQFAYASKFMVEQPSAIRPPVEVSHFEDDLLNSTITPIEVVRDNTMNCAENPELDEIYFSPGRQEVRMDEDVANESIRCNPSMASEMMVLQSEYNVLIADNDEVPMVVERERSPIVKAAKKRSTRAPAVPITPTEPASPVESPVKEQPQKAPKAQMRRSSKRTTKNNERCEQKEEEPIVNPKRRSARRLVPPVEVDEQPEEQNDDDAQNSLQIDSDAQNSLQIDSDAIITSPEKRNESKSAIPEEAADLDNTTSEKQESSTARYGVSNTSINRKKPDPVANPVSEEAQVDLANGSIPDKRPRKRKYGRVSSILDVADLPTDDTVEEDVRESPIYGRVPSILDVARAEENDAQNDAQDAQNEIAVEGLADLSIDTEQHEEAAPINVTGHQSESVPIIVTEHQSEEAQTVVTEQPAGAASVIAAERHYGRVSSILDVAGSFADVDPSGAAPAIATERHYGRVSSILDVAGSLSDVDPQEDTESSTQNQSTSKKFKPNPPKAMRYGQSPNMPSRRGN | not soluble
